Ends that are not written are not given here.
What was measured:
[1] = biological target: T1, Human hepcidin peptide (hepcidin-25) (human); assay: cell-based or functional assay
T1 peptide: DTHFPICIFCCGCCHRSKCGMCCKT

[2] = biological target: T2, Human hepcidin 10-25 peptide (human, also: oxidized peptide); assay: competition ELISA on MAb 583 coated plate, NT-biotin hepcidin-25 tracer
T2 construct: also called hep 10-25; Hep 10-25
T2 peptide: CCGCCHRSKCGMCCKT
Source text: (§1) Competition was detected by streptavidin-HRP with the substrate tetramethylbenzidine; the color reaction was stopped with 0.5 N H₂SO₄ and the optical density of the solution read at 450 nm wavelength.
(§2) Binding of biotinylated hepcidin-25 analogs and detection of bound NT-biotin hepcidin-25 was used to detect relative degree of binding of each of the hepcidin peptides relative to hepcidin-25 (data not shown).

Mouse hepcidin-1 peptide = biological target: T3, Mouse hepcidin-1 peptide (mouse); assay: as above
T3 construct: also called mouse hepcidin-25; murine hepcidin-1
T3 peptide: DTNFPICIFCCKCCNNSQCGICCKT
Source text: as §1, §2

NT-biotin hepcidin-25 [3] = biological target: T4, NT-biotin hepcidin-25 (human, NT-biotin (biotin at the N-terminus)); assay: SPR (Biacore 3000, CM5 chip, 25 °C): biotinylated peptide captured on immobilised neutravidin, MAb 583 injected at 5 µg/ml (33.5 nM per the table); column head 'Ka (1/Ms)'
T4 construct: also called NT-biotin hepcidin-25 tracer; NT-Bio Tracer
T4 peptide: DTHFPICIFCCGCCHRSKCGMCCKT

K18-biotin hepcidin-25 [4] = biological target: T5, K18-biotin hepcidin-25 (human, K18-biotin (biotin on Lys 18)); assay: as above
T5 construct: also called K18-biotin hepcidin-25 tracer
T5 peptide: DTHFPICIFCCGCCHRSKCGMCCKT

K24-biotin hepcidin-25 [5] = biological target: T6, K24-biotin hepcidin-25 (human, K24-biotin (biotin on Lys 24)); assay: SPR, Biacore 3000, biotin peptide on neutravidin CM5 chip, MAb 583 injected at 24 µg/ml, 25 C; hepcidin-25 biotinylated at K24 (K24-biotin) on the chip; MAb 583 at 24 µg/ml
T6 construct: also called K24-biotin hepcidin-25 tracer
T6 peptide: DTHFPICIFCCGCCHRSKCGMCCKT
Description: (§3) Biotinylated hepcidin peptides (NT-biotin-hepcidin-25, K18-biotin-hepcidin-25 and K24-biotin-hepcidin-25) were immobilized in flow cells 2-4 (one peptide species per flow cell) by injecting individual peptides at a concentration of 200 μg/ml at a flow rate of 5 μl/min, for 20 min.
(§4) After 3 minutes, injection was stopped and dissociation was followed for 6 min. Regeneration was performed by injecting 10 mM glycine HCl, pH 1.5 at a flow rate of 10 μl/min for 1 min.

[6] = biological target: T1, Human hepcidin peptide (hepcidin-25); assay: cell-based or functional assay
NT-biotin hepcidin-25 [7] = biological target: T4, NT-biotin hepcidin-25; assay: SPR, Biacore 3000, biotin peptide on neutravidin CM5 chip, MAb 583 injected at 24 µg/ml, 25 C; hepcidin-25 biotinylated at the N-terminus (NT-biotin) on the chip; MAb 583 at 24 µg/ml
Description: as §3, §4

[8] = biological target: T1, Human hepcidin peptide (hepcidin-25); assay: antibody titering ELISA, hepcidin 100 ng/well on plate, HRP-goat anti-mouse IgG; antibody 50 ng/well
NT-biotin hepcidin-25 [9] = biological target: T4, NT-biotin hepcidin-25; assay: SPR, Biacore, biotin peptide on neutravidin chip, MAb 583 at 5 µg/ml
K18-biotin hepcidin-25 [10] = biological target: T5, K18-biotin hepcidin-25; assay: as above
NT-biotin hepcidin-25 [11] = biological target: T4, NT-biotin hepcidin-25; assay: SPR (Biacore 3000, CM5 chip, 25 °C): biotinylated peptide captured on immobilised neutravidin, MAb 583 injected at 5 µg/ml (33.5 nM per the table); column head 'Kd (1/s)'
K18-biotin hepcidin-25 [12] = biological target: T5, K18-biotin hepcidin-25; assay: as above
NT-biotin hepcidin-25 [13] = biological target: T4, NT-biotin hepcidin-25; assay: SPR (Biacore 3000, CM5 chip, 25 °C): biotinylated peptide captured on immobilised neutravidin, MAb 583 injected at 5 µg/ml (33.5 nM per the table)
K18-biotin hepcidin-25 [14] = biological target: T5, K18-biotin hepcidin-25; assay: as above
[15] = biological target: T1, Human hepcidin peptide (hepcidin-25); assay: antibody titering ELISA, hepcidin 100 ng/well on plate, HRP-goat anti-mouse IgG; antibody 100 ng/well
[16] = biological target: T1, Human hepcidin peptide (hepcidin-25); assay: antibody titering ELISA, hepcidin 100 ng/well on plate, HRP-goat anti-mouse IgG; antibody 25 ng/well
NT-biotin hepcidin-25 [17] = biological target: T4, NT-biotin hepcidin-25; assay: SPR, Biacore 3000, biotin peptide on neutravidin CM5 chip, MAb 583 injected at 24 µg/ml, 25 C
Description: as §3, §4

K18-biotin hepcidin-25 [18] = biological target: T5, K18-biotin hepcidin-25; assay: as above
Description: as §3, §4

K24-biotin hepcidin-25 [19] = biological target: T6, K24-biotin hepcidin-25; assay: as above
Description: as §3, §4

K18-biotin hepcidin-25 [20] = biological target: T5, K18-biotin hepcidin-25; assay: SPR, Biacore 3000, biotin peptide on neutravidin CM5 chip, MAb 583 injected at 24 µg/ml, 25 C; hepcidin-25 biotinylated at K18 (K18-biotin) on the chip; MAb 583 at 24 µg/ml
Description: as §3, §4

[21] = biological target: T1, Human hepcidin peptide (hepcidin-25); assay: antibody titering ELISA, hepcidin 100 ng/well on plate, HRP-goat anti-mouse IgG; antibody 12.5 ng/well
[22] = biological target: T1, Human hepcidin peptide (hepcidin-25); assay: titration affinity ELISA, hepcidin 100 ng/well on Nunc Immobilizer Amino plate, CHO supernatant; antibody 12.5 ng/ml
Description: (§5) FIGS. 17A-C. Titration affinity ELISA of humanized hits. FIG. 17A: Assay layout. CHO cells were seeded in 6 well plates, transfected with BAP070-01 (recombinant chimera), BAP070-01 humanized hits or vector only using BioAtla's transfection protocol and cultured at 37° C. in DMEM with 10% serum. Supernatants were collected at 48 hours post-transfection. Concentration of IgG in the supernatant was determined using BioAtla's quantitation ELISA. […] Vector only supernatant (column 7) was used as negative control. Bound antibodies were detected with anti-human IgG conjugated with HRP (1:2500). The reactions were stopped with 1 N HCl at 1.5 minutes after TMB was added to the wells and read immediately. OD 450 nm value of the reactions was measure with Molecular Device SPECTRAMAX® Plus. FIG. 17B: OD 450 nm value of the reactions measured with Molecular Device SPECTRAMAX® Plus. FIG. 17C: SOFTMAX® graph of […] data (Brown triangle: BAP070-01 recombinant chimeric antibody). X axis: Antibody concentration in ng/ml. Y axis: OD 450 nm values

[23] = biological target: T1, Human hepcidin peptide (hepcidin-25); assay: titration affinity ELISA, hepcidin 100 ng/well on Nunc Immobilizer Amino plate, CHO supernatant; antibody 3.13 ng/ml
Description: as §5

[24] = biological target: T1, Human hepcidin peptide (hepcidin-25); assay: titration affinity ELISA, hepcidin 100 ng/well on Nunc Immobilizer Amino plate, CHO supernatant; antibody 25 ng/ml
Description: as §5

[25] = biological target: T1, Human hepcidin peptide (hepcidin-25); assay: titration affinity ELISA, hepcidin 100 ng/well on Nunc Immobilizer Amino plate; antibody 0 ng/ml (blank)
Description: as §5

[26] = biological target: T1, Human hepcidin peptide (hepcidin-25); assay: titration affinity ELISA, hepcidin 100 ng/well on Nunc Immobilizer Amino plate, CHO supernatant; antibody 1.56 ng/ml
Description: as §5

[27] = biological target: T1, Human hepcidin peptide (hepcidin-25); assay: titration affinity ELISA, hepcidin 100 ng/well on Nunc Immobilizer Amino plate, CHO supernatant; antibody 100 ng/ml
Description: as §5

[28] = biological target: T1, Human hepcidin peptide (hepcidin-25); assay: titration affinity ELISA, hepcidin 100 ng/well on Nunc Immobilizer Amino plate, CHO supernatant; antibody 50 ng/ml
Description: as §5

[29] = biological target: T1, Human hepcidin peptide (hepcidin-25); assay: titration affinity ELISA, hepcidin 100 ng/well on Nunc Immobilizer Amino plate, CHO supernatant; antibody 6.25 ng/ml
Description: as §5

B1: MAb 583 (antibody, V domains shown)
VH: QIQLVQSGPELKKPGETVKISCKASGYTFTNYGMNWVKQAPGKGLKWMGWINTYTGEPTYADDFKGRFAFSLETSASTAYLQINNLKNEDTATYFCTTYATSWYWGQG
VL: DIVLTQSPASLAVSLGQRATISCRASESVDSYGNSFMHWYQQKPGQPPKLLIYRASNLESGIPARFSGSGSRTDFTLTINPVEADDVATYYCQQSNEDLTFG
notes: Murine monoclonal, Protein A purified
With B1 the “EC50 (read off the curve); GFP fluorescence (% of untreated sample) of Fpn-GFP HEK cells, 37 nM hepcidin-25 present” value [1] was ~2 nM, the binding result [2] was “no binding (tested: up to 2000 ng/ml)” and the binding result (Mouse hepcidin-1 peptide) was “no binding”. The kon (NT-biotin hepcidin-25 [3]) was 1.33e+06 M⁻¹ s⁻¹, the kon (K18-biotin hepcidin-25 [4]) was 1.88e+06 M⁻¹ s⁻¹ and the Kd (K24-biotin hepcidin-25 [5]) was 5.54 nM. The “IC50 (read off the curve); normalized ferritin (% of uninduced sample) of Fpn-GFP HEK cells, 37 nM hepcidin-25 present” value [6] was ~2 nM, the Kd (NT-biotin hepcidin-25 [7]) was 0.0516 nM and the “OD 450 nm” value [8] was 4 OD450. The Kd (NT-biotin hepcidin-25 [9]) was ~0.018 nM, the Kd (K18-biotin hepcidin-25 [10]) was ~0.0075 nM and the koff (NT-biotin hepcidin-25 [11]) was 2.43e-05 s⁻¹. The koff (K18-biotin hepcidin-25 [12]) was 1.4e-05 s⁻¹, the Ka (NT-biotin hepcidin-25 [13]) was 5.47e+10 M⁻¹ and the Kd (NT-biotin hepcidin-25 [13]) was 0.0183 nM. For the same binder, the Ka (K18-biotin hepcidin-25 [14]) was 1.34e+11 M⁻¹, the Kd (K18-biotin hepcidin-25 [14]) was 0.00745 nM and the “OD 450 nm” value [15] was 4 OD450. The “OD 450 nm” value [16] was 4 OD450, the Ka (NT-biotin hepcidin-25 [17]) was 1.94e+10 M⁻¹ and the Req (NT-biotin hepcidin-25 [17]) was 78.8 RU. The kobs (NT-biotin hepcidin-25 [17]) was 0.00977 s⁻¹, the koff (NT-biotin hepcidin-25 [17]) was 3.15e-06 s⁻¹ and the kon (NT-biotin hepcidin-25 [17]) was 61100 M⁻¹ s⁻¹. The Ka (K18-biotin hepcidin-25 [18]) was 1.14e+09 M⁻¹, the Req (K18-biotin hepcidin-25 [18]) was 126 RU and the kobs (K18-biotin hepcidin-25 [18]) was 0.0102 s⁻¹. The koff (K18-biotin hepcidin-25 [18]) was 5.59e-05 s⁻¹, the kon (K18-biotin hepcidin-25 [18]) was 63700 M⁻¹ s⁻¹ and the Ka (K24-biotin hepcidin-25 [19]) was 1.8e+08 M⁻¹. For the same binder, the Req (K24-biotin hepcidin-25 [19]) was 63.1 RU, the kobs (K24-biotin hepcidin-25 [19]) was 0.0086 s⁻¹ and the koff (K24-biotin hepcidin-25 [19]) was 0.000288 s⁻¹. For the same binder, the kon (K24-biotin hepcidin-25 [19]) was 52000 M⁻¹ s⁻¹, the Kd (K18-biotin hepcidin-25 [20]) was 0.878 nM and the “OD 450 nm” value [21] was 4 OD450.

B2: BAP070-01 (human-mouse chimeric MAb 583) (antibody, human IgG1, kappa, V domains shown)
VH: QIQLVQSGPELKKPGETVKISCKASGYTFTNYGMNWVKQAPGKGLKWMGWINTYTGEPTYADDFKGRFAFSLETSASTAYLQINNLKNEDTATYFCTTYATSWYWGQGTLVTVSS
VL: DIVLTQSPASLAVSLGQRATISCRASESVDSYGNSFMHWYQQKPGQPPKLLIYRASNLESGIPARFSGSGSRTDFTLTINPVEADDVATYYCQQSNEDLTFGQGTKVEIKR
notes: used as CHO cell supernatant; also called BAP070-1
For B2, the “OD 450 nm” value [22] was 1.8 OD450, the “OD 450 nm” value [23] was 0.793 OD450 and the “OD 450 nm” value [24] was 2.57 OD450. The “OD 450 nm” value [25] was 0.05 OD450, the “OD 450 nm” value [26] was 0.492 OD450 and the “OD 450 nm” value [27] was 3.33 OD450. For the same binder, the “OD 450 nm” value [28] was 3 OD450 and the “OD 450 nm” value [29] was 1.32 OD450.

Reference: US20170247448A1 (INTRINSIC LIFESCIENCES, published 2017)
